{"source": "patent US20170355768A1", "about": "(Bristol-Myers Squibb, published 2017)", "target": "T1, human SLAM family member 7 (hSLAMF7) expressed on A20-hSLAMF7-GFP cells (human, UniProt Q9NQ25 23-335)", "T1 construct": "also called CS1; CS1-L", "test": "flow cytometry, 6.25 ug/ml Elotuzumab on A20-hSLAMF7-GFP cells, anti-human IgG-PE secondary", "description": "FIG. 3. Elotuzumab binding to hSLAMF7 expressed in A20 cells was confirmed by flow cytometry. A20-GFP or A20-hSLAMF7-GFP cells were incubated with 6.25 ug/ml Elotuzumab (BMS), washed twice and incubated with anti-human IgG-PE secondary antibody. The frequency of cells staining positive for GFP and hSLAMF7 is shown at 0 days.\nTo determine whether hSLAMF7 expressed in A20 is recognized by Elotuzumab, A20-GFP and A20-hSLAMF7-GFP cells were stained with Elotuzumab. A20-GFP or A20-hSLAMF7-GFP cells were incubated with 6.25 ug/ml Elotuzumab (BMS), washed twice and incubated with anti-human IgG-PE secondary antibody. The frequency of cells staining positive for GFP and hSLAMF7 was determined using flow cytometry."}
{"binder": "Elotuzumab (antibody, V domains shown, also called BMS-901608; HuLuc63) VH: EVQLVESGGGLVQPGGSLRLSCAASGFDFSRYWMSWVRQAPGKGLEWIGEINPDSSTINYAPSLKDKFIISRDNAKNSLYLQMNSLRAEDTAVYYCARPDGNYWYFDVWGQGTLVTVSS VL: DIQMTQSPSSLSASVGDRVTITCKASQDVGIAVAWYQQKPGKVPKLLIYWASTRHTGVPDRFSGSGSGTDFTLTISSLQPEDVATYYCQQYSSYPYTFGQGTKVEIK", "values": [{"measurement": "binding result", "value": "binds"}]}
